In US20250114433A1 (published 2025):
Substitutions are numbered along the chain they refer to.

Legend:
[1] = molecular target: T1, KRAS G12V peptide on HLA-A*02:01 (human); test: multimer staining
T1 peptide: KLVVVGAVGV

[2] = molecular target: KRAS 7-16(G12V) SCT tetramer #7; test: flow cytometry, tetramer labelling of TCR-transduced donor X CD8+ T cells, Tetramer APC against CD8 ef450 [Continued]
[3] = molecular target: KRAS 7-16(G12D) SCT tetramer #2 (human); test: as above
[4] = molecular target: HLA-A2 (DM)/KRAS (5-14_G12V)-peptide multimer; test: flow cytometry, Tet+ gate frequency; A2DM/KRAS G12V 5-14 tetramer at 1:50 [Continued]
[5] = molecular target: HLA-A2 (DM)/KRAS (5-14_G12V)-peptide multimer; test: flow cytometry, Tet+ gate frequency; A2DM/KRAS G12V 5-14 tetramer at 1:100 [Continued]
[6] = molecular target: HLA-A2 (DM)/KRAS (5-14_G12V)-peptide multimer; test: flow cytometry, Tet+ gate frequency; A2DM/KRAS G12V 5-14 tetramer at 1:200 [Continued]
[7] = molecular target: T2, KRAS G12V (same sequence in NRAS and HRAS G12V) peptide on HLA-A*11:01 (human); test: cytokine release
T2 peptide: VVGAVGVGK

[8] = molecular target: T3, KRAS G12V (same sequence in NRAS and HRAS G12V) peptide on HLA-A*11:01 (human); test: cytokine release
T3 peptide: VVVGAVGVGK

[9] = molecular target: T4, KRAS G12D (same sequence in NRAS and HRAS G12D) peptide on HLA-A*11:01 (human); test: cytokine release
T4 peptide: VVVGADGVGK

[10] = molecular target: HLA-A2 (DM)/KRAS (5-14_G12V)-peptide multimer; test: flow cytometry, Tet+ gate frequency; A2DM/KRAS G12V 5-14 tetramer at 1:400 [Continued]
[11] = molecular target: A2/KRAS G12V 5-14 (human), A*02:0; test: flow cytometry, Tet+ gate frequency; A2/KRAS G12V 5-14 tetramer at 1:400; no-tetramer control Tet+ 0

B1: A2 KRAS TCR11 (TCR, V domains shown)
Valpha: DQQVKQNSPSLSVQEGRISILNCDYTNSMFDYFLWYKKYPAEGPTFLISISSIKDKNEDGRFTVFLNKSAKHLSLHIVPSQPGDSAVYFCAAISLTSGTYKYIFGTGTRLKVLA
Vbeta: DTEVTQTPKHLVMGMTNKKSLKCEQHMGHRAMYWYKQKAKKPPELMFVYSYEKLSINESVPSRFSPECPNSSLLNLHLHALQPEDSALYLCASSQDLGTVYEQYFGPGTRLTVT
Q: Does B1 bind [1]?
A: recognises

B2: TCR_20 (TCR, V domains shown)
V domain 1: DAKTTQPPSMDCAEGRAANLPCNHSTISGNEYVYWYRQIHSQGPQYIIHGLKNNETNEMASLIITEDRKSSTLILPHATLRDTAVYYCIVRLNSGNTPLVFGKGTRLSVIA
V domain 2: EAGVAQSPRYKIIEKRQSVAFWCNPISGHATLYWYQQILGQGPKLLIQFQNNGVVDDSQLPKDRFSAERLKGVDSTLKIQPAKLEDSAVYLCASSPTFPAGDRDTQYFGPGTRLTVLE
Q: Which tetramer gate (share of cells in the gate; unit not given) [2] does the source give for B2 here?
A: 3.96

Q: And the tetramer gate (share of cells in the gate; unit not given) [3]?
A: 3.48

B3: A2 KRAS TCR05 (TCR, V domains shown)
Valpha: AQSVTQPDIHITVSEGASLELRCNYSYGATPYLFWYVQSPGQGLQLLLKYFSGDTLVQGIKGFEAEFKRSQSSFNLRKPSVHWSDAAEYFCAVGDENTGFQKLVFGTGTRLLVSP
Vbeta: DVKVTQSSRYLVKRTGEKVFLECVQDMDHENMFWYRQDPGLGLRLIYFSYDVKMKEKGDIPEGYSVSREKKERFSLILESASTNQTSMYLCASALRGTYEQYFGPGTRLTVT
Q: Does B3 bind [1]?
A: recognises

B4: A2 KRAS TCR08 (TCR, V domains shown)
Valpha: GEDVEQSLFLSVREGDSSVINCTYTDSSSTYLYWYKQEPGAGLQLLTYIFSNMDMKQDQRLTVLLNKKDKHLSLRIADTQTGDSAIYFCAERIDSGNTPLVFGKGTRLSVIA
Vbeta: B3 Vbeta with S93I, A94E, L95P, R96P, G97T, T98G, Y99N
Q: Does B4 bind [1]?
A: recognises

B5: A2 KRAS TCR18 (TCR, V domains shown)
Valpha: GEDVEQSLFLSVREGDSSVINCTYTDSSSTYLYWYKQEPGAGLQLLTYIFSNMDMKQDQRLTVLLNKKDKHLSLRIADTQTGDSAIYFCAVLLDNQGGKLIFGQGTELSVKP
Vbeta: B3 Vbeta with A94R, L95G, R96L, G97S, Y99D, E100T, T112L
Q: Does B5 bind [1]?
A: recognises

B6: A2 KRAS TCR04 (TCR, V domains shown)
Valpha: AQKVTQAQTEISVVEKEDVTLDCVYETRDTTYYLFWYKQPPSGELVFLIRRNSFDEQNEISGRYSWNFQKSTSSFNFTITASQVVDSAVYFCALMDSSYKLIFGSGTRLLVRP
Vbeta: GAVVSQHPSWVICKSGTSVKIECRSLDFQATTMFWYRQFPKQSLMLMATSNEGSKATYEQGVEKDKFLINHASLTLSTLTVTSAHPEDSSFYICSAFLSGSADTQYFGPGTRLTVL
Q: Does B6 bind [1]?
A: recognises

B7: 141_1 TCR (TCR, V domains shown)
V domain 1: AQTVTQSQPEMSVQEAETVTLSCTYDTSESDYYLFWYKQPPSRQMILVIRQEAYKQQNATENRFSVNFQKAAKSFSLKISDSQLGDAAMYFCALKTSYDKVIFGPGTSLSVIP
V domain 2: NAGVTQTPKFQVLKTGQSMTLQCAQDMNHEYMSWYRQDPGMGLRLIHYSVGAGITDQGEVPNGYNVSRSTTEDFPLRLLSAAPSQTSVYFCASSLGAGEWKSPLHFGNGTRLTVTE
Q: For B7, which tetramer gate (share of cells in the gate; unit not given) [2] is on record?
A: 4.06

Q: What about the tetramer gate (share of cells in the gate; unit not given) [3] of the same binder?
A: 14.8

B8: A2 KRAS TCR09 (TCR, V domains shown)
Valpha: GESVGLHLPTLSVQEGDNSIINCAYSNSASDYFIWYKQESGKGPQFIIDIRSNMDKRQGQRVTVLLNKTVKHLSLQIAATQPGDSAVYFCAEIFNDYKLSFGAGTTVTVRA
Vbeta: EAQVTQNPRYLITVTGKKLTVTCSQNMNHEYMSWYRQDPGLGLRQIYYSMNVEVTDKGDVPEGYKVSRKEKRNFPLILESPSPNQTSLYFCASSQAGLGNEQFFGPGTRLTVL
Q: Does B8 bind [1]?
A: recognises

B9: TCR13 (TCR, V domains shown)
Valpha: QKEVEQDPGPLSVPEGAIVSLNCTYSNSAFQYFMWYRQYSRKGPELLMYTYSSGNKEDGRFTAQVDKSSKYISLFIRDSQPSDSATYLCAMSASAAGNKLTFGGGTRVLVKP
Vbeta: EADIYQTPRYLVIGTGKKITLECSQTMGHDKMYWYQQDPGMELHLIHYSYGVNSTEKGDLSSESTVSRIRTEHFPLTLESARPSHTSQYLCASSEGLYNEQFFGPGTRLTVL
Q: Which Tet+ [4] does the source give for B9 here?
A: 58.7

Q: And the tetramer gate (share of cells in the gate; unit not given) [2]?
A: 5.19

Q: And the tetramer gate (share of cells in the gate; unit not given) [3]?
A: 82.8

Q: What about the Tet+ [5] of the same binder?
A: 45

Q: And the Tet+ [6]?
A: 33.7

Q: Does B9 bind [7]?
A: no recognition

Q: Does B9 bind [8]?
A: no recognition

Q: Does B9 bind [9]?
A: recognises

Q: And the Tet+ [10]?
A: 9.2

Q: What about the Tet+ [11] of the same binder?
A: 84.6

B10: A2 KRAS TCR19 (TCR, V domains shown)
Valpha: AQSVSQHNHHVILSEAASLELGCNYSYGGTVNLFWYVQYPGQHLQLLLKYFSGDPLVKGIKGFEAEFIKSKFSFNLRKPSVQWSDTAEYFCAVNDPSDYKLSFGAGTTVTVRA
Vbeta: DGGITQSPKYLFRKEGQNVTLSCEQNLNHDAMYWYRQDPGQGLRLIYYSQIVNDFQKGDIAEGYSVSREKKESFPLTVTSAQKNPTAFYLCASRSDRNEQFFGPGTRLTVL
Q: Does B10 bind [1]?
A: recognises

B11: A2 KRAS TCR15 (TCR, V domains shown)
Valpha: GEDVEQSLFLSVREGDSSVINCTYTDSSSTYLYWYKQEPGAGLQLLTYIFSNMDMKQDQRLTVLLNKKDKHLSLRIADTQTGDSAIYFCAEMMDTDKLIFGTGTRLQVFP
Vbeta: EAGVAQSPRYKIIEKRQSVAFWCNPISGHATLYWYQQILGQGPKLLIQFQNNGVVDDSQLPKDRFSAERLKGVDSTLKIQPAKLEDSAVYLCASSLPSGNEQFFGPGTRLTVL
Q: Does B11 bind [1]?
A: recognises

B12: A2 KRAS TCR12 (TCR, V domains shown)
Valpha: AQSVTQLDSQVPVFEEAPVELRCNYSSSVSVYLFWYVQYPNQGLQLLLKYLSGSTLVESINGFEAEFNKSQTSFHLRKPSVHISDTAEYFCAVTRDDKIIFGKGTRLHILP
Vbeta: DVKVTQSSRYLVKRTGEKVFLECVQDMDHENMFWYRQDPGLGLRLIYFSYDVKMKEKGDIPEGYSVSREKKERFSLILESASTNQTSMYLCASSLQVSGVAGYTFGSGTRLTVV
Q: Does B12 bind [1]?
A: recognises
